Reference: the DeepSol protein solubility set

Assay: soluble on expression in E. coli; label from the status in PepcDB or PDB records

Row | Sequence | soluble on expression in E. coli
1 | MRKEGYKSGFVAIIGRPNVGKSTFLNRVIGQKIAIMSDKPQTTRNKIQGVYTDDDAQIIFIDTPGVHKPKHKLGDFMMKVALNALREVDLILFMVNAEEGFGRGEAFIIERLKEVDTPVFLVINKIDRVHPDELLPLIDRYKDLYPFAEIVPISALEGNNVDRLLEQIKERLPEGPQYYPPDQITDHPEQFIIAELIREKALHLTREEVPHSIAVVVERIERREGSPTVYISAVIVVERDSQKGIIIGKQGRMLKEIGQRARADIEALLGSRVFLELWVKVQKDWRNRLSQLRDFGFREDEY | soluble
2 | MAVKVKKILISQPQPVAGRSPYYDIAQKHGCEVVFRPFIQVESVSAREFRNQKVNILDHSAIIFTARTAIDHFFSLCEELRVTVPETMKYFCVSESVAVYLQKHIVYRKRKIFFGATGKLEDLLTVISKHNKETYFVPLAEEHKHDLLDMLTAKKVSFSPAIMYRTVSNDFGPDEALDHDMILFFSPSGITALLKNFPKFEQGKTKIGAFGPTTAKAVEEAGLRLDLSAPTEQYPSMAMALEDYLNGK | not soluble
3 | MSLKTALDIIEHAEEHLIEKIAENMHTFGMPSTVGRVLGIIYMNRKPMTLSELSEATGMSKTRMSQVVREMIDANIAEKVFEKGVRKDLYDVEQDYYQTFISLFAANWTKVVSKNKVLYKKLNRELSDLLQRDGLTPEAEEKVNQLLNELKEWLHYYDWLSRLIEFFESEEVFRYVPKTKECSSLKEGGSHHHHHH | soluble
4 | SRGHDATSWINRCLDCFSEGLSFRRQSKRPKMKVHYGDKAKDYDYNARKKQQSEEIDRILDKLKKSGYNSLTTEEKKSLFDASKK | not soluble
5 | MNEMWLHRADLAESAINERHASRLWMLPRTNLAVVAWPPTAKERLFYRWHYWWQAHYLDCLIDAASRRTTKARKQRIRDTIVGIRLRNLGRLTKNNYYDDKSWLALALDRERRLNKRAKREYLRVLEGNIAAGQDDIQGVLPWRVGEHFFNVPTNGPAAIMLARNGEVEQARKLVDWIFDNLINDKGLVMDGLRMSMRGPEIVDPVYPYCQGVVIGACIEIAEALPFEESVQYLAHARAVIHAVAKEMATPEGVINAATGDGDGGLFKGILMRYLADAAVRLPEDGPANIATKKIAKRLVMASAESVWEHRLEVDGLPVFATDWCDDARLPHNYGVGGSALSDIVRVVRIDERDLSVQLSGWMLLEAAARVSLVDLEHHHHHH | soluble
6 | GSVVIVGRIILSGSGSITAYSQQTRGLLGCIITSLTGRDKNQVEGEVQVVSTATQSFLATCVNGVCWTVYHGAGSKTLAGPKGPITQMYTNVDQDLVGWQAPPGARSLTPCTCGSSDLYLVTRHADVIPVRRRGDSRGSLLSPRPVSYLKGSSGGPLLCPSGHAVGIFRAAVCTRGVAKAVDFVPVESMETTMRSPVFTDNSSPPAVPQSFQVAHLHAPTGSGKSTKVPAAYAAQGYKVLVLNPSVAATLGFGAYMSKAHGIDPNIRTGVRTITTGAPVTYSTYGKFLADGGCSGGAYDIIICDECHSTDSTTILGIGTVLDQAETAGARLVVLATATPPGSVTVPHPNIEEVALSNTGEIPFYGKAIPIEAIRGGRHLIFCHSKKKCDELAAKLSGLGINAVAYYRGLDVSVIPTIGDVVVVATDALMTGYTGDFDSVIDCNTCVTQTVDFSLDPTFTIETTTVPQDAVSRSQRRGRTGRGRRGIYRFVTPGERPSGMFDSSVLCECYDAGCAWYELTPAETSVRLRAYLNTPGLPVCQDHLEFWESVFTGLTHIDAHFLSQTKQAGDNFPYLVAYQATVCARAQAPPPSWDQMWKCLIRLKPTLHGPTPLLYRLGAVQNEVTLTHPITKYIMACMSADLEVVT | soluble
7 | GPGSMSSIPVDVLNAVTQCNEKVTAVEKEIEEFTNQVRIDFRSKIEPLFDKRHLELEKIEGFWGSAFVAVESPLMGLLNGTIDPKIVRALTDFRVKTSVRDGSICRCVSVTFRPNMFVKEGTFSRELDPSVNTLSLQPILWKPGTEKARTDSLFRFFSPECKDIEFLERALTEFDELFQNPLLAFE | not soluble
8 | MSLNEESYLVNRGKGVVRYDVVQVPSNSPIEDDHAEKIVEVPASTSAANEGQSSSDWMFWAVFDGHSGWTTSAKLRNVLISYVARELNATYKSASSDPSLVLPSSEAVDAAIKQGFVRLDNDIVHGSVNQVFKSNSRRAAAELLAPALSGSCALLAFYDSQTRDLKVACAGDSRAVLGRRSENGKWTATPLSEDQTGGTPSEMKRLREEHPGEPNVVRNGRILGQLEPSRSFGDAFYKWSKETQEKIKRQFFGRTPHPLLKTPPYVTAEPIITTTKVDPSQGDFLVLATDGLWEMLSNEEVVGLVGQWIEEQKAAAGAGTGNKSWVRSLFGSQPTEGHHHHHH | soluble
